Article PMC4908395, “Conformational flexibility related to enzyme activity: evidence for a dynamic active-site gatekeeper function of Tyr^215 in Aerococcus viridans lactate oxidase” (Scientific Reports, 2016)
Numbering of substitutions follows the chain as printed. Names may count otherwise.

Legend:
[1] = target: T1, avLOX (Aerococcus viridans L-lactate oxidase) (Aerococcus viridans, UniProt Q44467); experiment: stopped-flow anaerobic FMN reduction, […] nm, hyperbolic fit; assay type: biochemical; details: pH 5.5, 20 °C, 50 mM potassium phosphate, read-out: Enzyme / Wild-type avLOX / Reaction pH / 5.5
T1 construct: wild type from Roche (grade 1, lyophilized); Y215 variants from plasmid pLO-1 in E. coli BL21 (DE3), no tag stated; missing residues 1-7 modeled for simulation only
T1 sequence (Q44467 1-374): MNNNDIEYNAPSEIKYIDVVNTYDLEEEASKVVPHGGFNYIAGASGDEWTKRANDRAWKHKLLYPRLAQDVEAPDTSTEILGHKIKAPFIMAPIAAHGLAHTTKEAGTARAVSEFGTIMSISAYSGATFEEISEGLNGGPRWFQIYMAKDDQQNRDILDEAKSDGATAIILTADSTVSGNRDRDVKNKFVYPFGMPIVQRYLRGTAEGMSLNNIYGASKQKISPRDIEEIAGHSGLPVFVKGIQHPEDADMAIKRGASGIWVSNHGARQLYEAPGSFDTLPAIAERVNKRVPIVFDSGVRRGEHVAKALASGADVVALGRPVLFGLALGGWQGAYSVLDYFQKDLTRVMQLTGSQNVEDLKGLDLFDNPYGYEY

[2] = test system: C[C@H](O)C(=O)O; experiment: steady-state initial rates; assay type: biochemical, Aerococcus viridans; details: pH 6.5, 20 °C, air-saturated (250 μM O2), 50 mM potassium phosphate
[3] = test system: C[C@H](O)C(=O)O; experiment: purified protein; details: pH 6.5, 20 °C, air-saturated (250 μM O2), 50 mM potassium phosphate
[4] = substrate: C[C@H](O)C(=O)O; experiment: purified protein; details: pH 6.5, 20 °C, air-saturated (250 μM O2), 50 mM potassium phosphate; remark: listed apart in the source
[5] = target: the molecule itself; experiment: crystal structure; hanging drop vapor diffusion, 20 °C; 10 mg/mL protein in 50 mM potassium phosphate pH 7.0 mixed with 30% polyethylene glycol, 50 mM Tris-HCl pH 8.0, 50 mM pyruvate; spacegroup P2_(1), 2.6 Å

Work on `C[C@H](O)C(=O)O` [L-lactate] yielded a Kd [1] of 3 ± 0.4 mM.

For “avLOX (Aerococcus viridans L-lactate oxidase) (Aerococcus viridans ATCC 11563 = CCUG 4311; Y215F)”, the Km [2] was 130 ± 10 µM and the kcat [2] was 22 ± 2 s⁻¹.

“avLOX (Aerococcus viridans L-lactate oxidase) (Aerococcus viridans ATCC 11563 = CCUG 4311; Y215H)” was tested, and the Km [3] was 520 ± 120 µM.

B1: avLOX (Aerococcus viridans L-lactate oxidase) (Aerococcus viridans ATCC 11563 = CCUG 4311) (protein)
chain: T1 sequence (Q44467 1-374)
B1 showed a Km [4] of 500 ± 100 µM and a kcat [4] of 88 ± 2 s⁻¹.

B2: Aerococcus viridans L-lactate oxidase Y215F variant (enzyme)
chain: T1 sequence (Q44467 1-374) with Y215F
notes: also called Y215F avLOX; avLOX Y215F mutant
For B2, the “stoichiometry N” value [5] was 4.
